Assay results as given in the nanobody polyreactivity screen of Harvey et al. (2022).

Assay: yeast display, Sf9 membrane polyspecificity reagent, FACS + sequencing; frameworks hold sequencing errors
Method in brief: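 Nanobodies came from a synthetic yeast display library in Saccharomyces cerevisiae BJ5465, induced with galactose for 36–48 hours and stained for 1 hour at 4 °C with 10% biotinylated, detergent-solubilized Sf9 membrane reagent. Cells were enriched on streptavidin microbeads and then FACS-sorted, with low and high (top ~1%) gates set on anti-HA fluorescence for expression and streptavidin fluorescence for reagent binding. Each polyreactivity label reflects the gate a clone came from. Genes were amplified by colony PCR, sequenced by MiSeq 2 × 250 and filtered by CDR length.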
In the case of “QVQLVESGGGLVQAGGSLRLSCAASGFILTSNAMGWYRQAPGKERELVAAITRNGARTYYADSVKGRFTISRDNAKNTVYLQMNSLKPEDTAVYYCAAETVSYWWWGQDIPYYYWGQGTQVTVSS”, the “polyreactivity (PSR sort gate)” value is reported as “high polyreactivity”.
With “QVQLVESGGGLVQAGGSLRLSCAASGSIFRRNAMGWYRQAPGKERELVAAISQSGGSTYYADSVKGRFTISRDNAKNTVYLQMNSLKPEDTAVYYCAAKAHTVGGYAYYHTSTYYWGQGTQVTVSS” the “polyreactivity (PSR sort gate)” value was “high polyreactivity”.
In the case of “QVQLVESGGGLVQAGGSLRLSCAASGFIFWYYAMGWSRQAPGKERELVAAISGSGGRTYYADSVKGRFTISRDNAKNTVYLQLNSLKPEDTAVYYCNARRAAYYHRARELDYWGEGTQVTVSS”, the “polyreactivity (PSR sort gate)” value is reported as “high polyreactivity”.
In the case of “QVQLVESGGGLVQSGGSLRLSCAASGFIFGEYTMGWNRQAPGKEREFVAAISWSGGSTSYADSVKGRFTISRDNAKNTVYLQMNSLKPEDTAVYYCAARYGSDYDYWGQGTQVTVSS”, the “polyreactivity (PSR sort gate)” value is reported as “low polyreactivity”.
With “QVQLVESGGGLVQAGGSLRLSCAAYGFIVPAYAMGWYRQAPGKERELVAAISWDGGSTYYADSVKGRFTISRDNAKNTVYLQMNSLKPEDTPVYYCAATFFADTWYGWYDYWGQGTQVTVSS” the “polyreactivity (PSR sort gate)” value was “high polyreactivity”.
In the case of “QVQLVESGGGLVQAGGSLRLSCAASGRIFQYYAMGWYRQAPGKERELVAAISRTGSTYYADSVKGRFTISRDNGKNTVYLQMNRLNPEDTAVYYCAADYWPQSNRWVYFRYGYWGQGTQVTVSS”, the “polyreactivity (PSR sort gate)” value is reported as “high polyreactivity”.
With “QVQLVESGGGLVQAGGSLRLSCAASGSIFKYAMGWSRQAPGKERELVAAINQRGGRTYYADSVKGRFTISRDNAKNTVYLQMNSLKPEDTAVYYCNAYYLRTSSTEYDYWGQGTQVTVSS” the “polyreactivity (PSR sort gate)” value was “high polyreactivity”.
For “QVQLVESGGGLVQAGGSLRLSCAASGRTFRAYVMGWYRQAPGKERELVAAITGDGGSTYYADSVKGRFTISRDNAKNTVYLQMNSLKPEDTAVYYCAAGYVTVYGYYEYWGQGTQVTVSS”, the “polyreactivity (PSR sort gate)” value was “high polyreactivity”.
For “QVQLVESGGGLVQAGGSLRLSCAASGSIFLTNAMGWYRQAPGKERELVAAIRSGGSTSYADSVKGRFTISRDNAKNTVYLQMNSLKPEDTAVYYCNAESDYRNYKVHPSGIYEYWGQGTQVTVSS”, the “polyreactivity (PSR sort gate)” value was “low polyreactivity”.
In the case of “QVQLEESGGGLVQAGGSLRLSCAASGSIFYLNDMGWYRQAPGKEREFVAAIDSRGTSTYYADSVKGRFTISRDNAKNTVYLQMNSLKPEDTAVYYCAADSYALEYDYWGQGTQVTVSS”, the “polyreactivity (PSR sort gate)” value is reported as “low polyreactivity”.
In the case of “QVQLVESGGGLVQAGGSLRLSCAASGSTLDLYAMGWYRQAPGKEREFVASISWSGGSTYYADSVKGRFTISRDNAKNTVYLQMNRLKPEDTAVYYCAADLVIRGSLYVSSWYDYWGQGSQVTVSS”, the “polyreactivity (PSR sort gate)” value is reported as “low polyreactivity”.
For “QVQLVESGGGLVQAGGSLRLSCAASGLTFYGYGMGWYRQAPGKERELVASITSGGNTYYADSVKGRFTISRDNAKNTVYLQMNSLKPEDTAVYYCNADDGGPGVVLPTKEYDYWGQGTQVTVSS”, the “polyreactivity (PSR sort gate)” value was “low polyreactivity”.
With “QVQLVESGGGLVQAGGSLRLSCAASGSIFTYYTMGLYRQAPGKERELVADITGGGSSTYYADSVKGRFTISRDNAKNTVYLQMNSLKPEDTAVYYCAADKYWAQNDYWGQGTQVTVSS” the “polyreactivity (PSR sort gate)” value was “low polyreactivity”.
In the case of “QVQLVESGGGLVQAGGSLRLSCAASGRIFSIYAMGWYRQAPGKEREFVAAITQSGGSTYYADSVKGRFTISRDNAKNTVYLQMNSLKPEDTAVYYCAADEWGVRSEYDYWGQGTQVTVSS”, the “polyreactivity (PSR sort gate)” value is reported as “low polyreactivity”.
With “QVQLVESGGGLVQAGGSLRLSCAASGRTFTNNAMGWYRQAPGKERELVARITKTSGSTHYADSVKGRFTNSRDNAKNTVYLQMNSMKPEDTAVYYCATRGHYHGFYYTYPRYDSWGQGTQVTVSS” the “polyreactivity (PSR sort gate)” value was “low polyreactivity”.
For “QVQLVESGGGLVQAGGSLRLSCAASGSIFHLYAMGWYRQAPGKEREFVAAISSSGGLTYYADSVKGRFTISRDNAKNTVYLQMNSLKPEDTEVYYCATAEQYGTKLRKVSYQYDYWGQGTQVTVSS”, the “polyreactivity (PSR sort gate)” value was “low polyreactivity”.
With “QVQLEESGGGLVQAGGSLRLSCAASGPIFPGYVMGWYRQAPGKERELVAAISVRGGSTYYADSVKGRFTISRDNAKNTVYLQMNSLKPEDTAVYYCAADSYYYQGYRRYNYDYWGQGTQVTVSS” the “polyreactivity (PSR sort gate)” value was “high polyreactivity”.
With “QVQLVESGGGLVQAGGSLRLSCAASGSIFVPYAMGWYRQAPGKERELVAAINHGGGRTYADSVKGRFTISRDNAKNTVYLQMNSLKPEDTAVYYCAADGAHKIGYYRYYYWGQGTQVTVSS” the “polyreactivity (PSR sort gate)” value was “low polyreactivity”.
In the case of “QVQLVESGGGLVQAGGSLRLSRAASGRTFYGYAMGWYRQAPGKESELVARIRSGGSTNYADSVKGRFTISRDNAKNTVYLLMNSLIPEDTAVFYCAARPGAAGYKYYYWGQGTQVTVSS”, the “polyreactivity (PSR sort gate)” value is reported as “high polyreactivity”.
For “QVQLVESGGGLVQAGGSLRLSCAASGSTFYPNAMGRYRQAPGKERELVAAISRGTRTKYADSVKGRFTISRDNAKNNVYLQMNSLKPEDTAVYYCAADTGTGLDWGQGTQVNVSS”, the “polyreactivity (PSR sort gate)” value was “high polyreactivity”.
For “QVQIVESGGGLVQAGGSLRLSCAPSGRTFVGFAKGWYRQAPGKERELVAAISRTGGSTYYADSVKGRFTISRDNAKNTVYLQMNSLKPEDTAVYYCNAVTLSSTYGGHDYWGQGTQVTVSS”, the “polyreactivity (PSR sort gate)” value was “high polyreactivity”.
In the case of “QVQLVESGGGLVQPGGSLRLSCAASGRISYVYTMGWYRQAPGKERELVAAISKSGGSTSYADSVKGRFTISRDNAKNTVYLQMNSLKPEDTAVYYCAAGRYYYTYAYDHWGQGTQVTLSS”, the “polyreactivity (PSR sort gate)” value is reported as “high polyreactivity”.
In the case of “QVQLVESGGGLVQAGGSLRLSCAASGRTFTAYTMGWYRQAPGKERELVASISSGVTYADSVKGRFTISRDNAKNTVYVQMNSLKPEDTAVYYCAARLWYVQGYVPYVHHRFDYWGQGTQVTVSS”, the “polyreactivity (PSR sort gate)” value is reported as “low polyreactivity”.
In the case of “QVQLEESGGGVVQAGGSLRISCAASGIIFYRYTMGWYRQAPGKERELVAAIASRGGSTYYADSVKGRFTISRDNAKNTVYLQMNSLKPEDTAVYYCAAGARYGKVRYGYWGQGTQVTVSS”, the “polyreactivity (PSR sort gate)” value is reported as “high polyreactivity”.
With “QVQLVESGGGLVQAGGSLRLSCDASGSIFYSKAMGWYRQAHGKERELVAAITVGGGRTYYADSVKGRFTISRDNAKNTVYLQMNSLNPEDTAVYYCAADSHASTYDYWGQGTQVTVSS” the “polyreactivity (PSR sort gate)” value was “low polyreactivity”.
In the case of “QVQLVESGGGLVQAGGSLRLSCAASGRIFDDYVMGWYRKAPGKERELVARISVRGGSTYYADSVKGRFTISRDNAKNTVYLQMNSLKPEDTAVYYCNAVFGGWLGPFDYWGQGTQVTVSS”, the “polyreactivity (PSR sort gate)” value is reported as “low polyreactivity”.
For “QVQLVESGGGLDQAGGSLRLSCAASGRIFDSNAMGWYRQAPGKERELVAAISYDGGSTYYADSVKGRFTISRDNAKNTVYLQMNSLKPEDTAVYYCAGDDGWYYYYGYDYWGQGTQVTVSS”, the “polyreactivity (PSR sort gate)” value was “low polyreactivity”.
With “QVQLVESGGGLVQAGGSLRLSCAASGFIFGYNAMGWYRQAPGKERELVAAIDWSGTSTYYADSVKGRFTISRDNAKNTVYLQMNSLKPEDTAVYYCAADTSTWAHTRGYDYWGQGTQVTVSS” the “polyreactivity (PSR sort gate)” value was “high polyreactivity”.
With “QVQLVESGGGLVQAGGSLRLSCAASGFIFTGYAMGWYRQAPGKERELVAAITRNGGSTYYADSVKGRFTISRDNAKNSVYLQMNSLKPEDTAVYYCAARGNRVSPEYYYWGQGTQVTVSS” the “polyreactivity (PSR sort gate)” value was “high polyreactivity”.
With “QVQLVESGGGLVQAGGSLRLSCAASGRIISHNAMGWYRQAPGKERELVAVISNGGSTYYADSVKGRFTISRDNAKNTVYLQMNSLKPEDTAVYYCAARYTPQSGFYYRGQGTQVTVSS” the “polyreactivity (PSR sort gate)” value was “low polyreactivity”.
In the case of “QVQLVESGGGLVQAGGSLRLSCAASGRIFAFYAMGWYRQAPGKEREFVAAITYSGGNTNYADSVKGRFTISRDNAKNTVYLQMNSLKPEDTAVYYCAAALVYGVYYQEDYWGQGTQVTVSS”, the “polyreactivity (PSR sort gate)” value is reported as “low polyreactivity”.
For “QVQLQESGGGLVQAGGSLRLSCAASGNIYDADIMGWYRQAPGKERELVTSITDGGSTNYADSVKGRFTISRDNAKNTVYLQMNSLKPEDTAVYYSAAIAYADIPTSFDYNSDYSYWGQGTQVTVSS”, the “polyreactivity (PSR sort gate)” value was “low polyreactivity”.
In the case of “QVQLVESGGGLVQAGGSLRLSCAASGFIFWWYGMGWYRQSPGKEREFVAAITQSGSTYYADSVKGRFTISRDNAKNTVYLQMNSLKPEDTAVYYCAAVVGRRLYPRYDYWGQGTQVTVSS”, the “polyreactivity (PSR sort gate)” value is reported as “high polyreactivity”.
In the case of “QVQIVESCGGLVQAGGSLRLICAASGFIFTHYAMGWYRQAPGKERELVAAISSGGSTYYADSVKGRFTISRDNAKYTVYLQMNSLKPEDTAVYYCAAVWPWRYYATGENYWGQGTQVTVSS”, the “polyreactivity (PSR sort gate)” value is reported as “high polyreactivity”.
In the case of “QVQLVESGGGLVQAGGSLRLSCAASGSIFRRYAMGWYRQAPGKERELVAAISTRGGSTYYADSVKGRFTISRDNAKNTVYLQMNSLKPEDTAVYYCAVKGSGGPKYDYWGQGTQVTVAS”, the “polyreactivity (PSR sort gate)” value is reported as “high polyreactivity”.
With “QVQLVESGGGLVQAGGSLRLSCAASASIFYRYAMGWYRQAPGKERELVAAITRSGARTYYADSVKGRFTISRDNAKNTVYLQMNSLKPEDNAVYYCAADDPGYYQVEYWGQGTQVTVSS” the “polyreactivity (PSR sort gate)” value was “high polyreactivity”.
In the case of “QVHLVESGGGLVQAGGSLRLSCAASGRIFIYNAMGWYRPPPGKERELVAAINRSGVSTHYADSVKGRFTISRDNAKNTVFLQMNSLKPEDTAVYYCARTVYGARSYDYWGQGTQVTVSS”, the “polyreactivity (PSR sort gate)” value is reported as “low polyreactivity”.
For “QVQLVESGGGLVQAGGSLRLSCAASGSIFQTYAMGWYRQAPGKERELVAAITSGGGSTYYADSVKGRFTISRDNAKNTVYLQMNSLKPEDTAVYYCNRLYRYLVWPAGEYDYWGQGTQVTVTS”, the “polyreactivity (PSR sort gate)” value was “high polyreactivity”.
With “QVQLVESGGGLVQAGGSLRLSCPASGSILYSYAMGWYRQAHGKERELVAAITGDGASTNYADSVKGRFTISRDNAKNTVYFQMNSLKPEDTAVYYCNAGRESDDVYEGSQRIGQFDYWGQGTLVTVSS” the “polyreactivity (PSR sort gate)” value was “low polyreactivity”.
In the case of “QVQLVESGGGLVQAGGSLRLSCAASGFTLTRNAMGWYRPAPGKERELVAAISWSGGTTYYADSVKGRFTISRDNAKNTVYLQMNSLKPEDTAVYYCAADSVKYGGDYWGQGTQVTVSS”, the “polyreactivity (PSR sort gate)” value is reported as “high polyreactivity”.
